Experiment [1] has as its target T1, mouse OX40-his (mouse, UniProt P47741 20-211).
T1 construct: also called mOX40-his; not shown: his tag
T1 sequence (looked up): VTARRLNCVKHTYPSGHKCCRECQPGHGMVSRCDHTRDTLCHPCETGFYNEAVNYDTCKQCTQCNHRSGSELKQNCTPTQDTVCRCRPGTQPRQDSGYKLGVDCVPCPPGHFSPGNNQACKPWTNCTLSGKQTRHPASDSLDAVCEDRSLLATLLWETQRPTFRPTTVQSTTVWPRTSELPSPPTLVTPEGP
As to the kind of experiment: ELISA, 10 ng antigen coated, HRP secondary antibody.

For experiment [2], the target named is T2, hCD27-FC (human, UniProt P26842 20-191, limits assumed).
T2 construct: not shown: Fc part
T2 sequence (looked up): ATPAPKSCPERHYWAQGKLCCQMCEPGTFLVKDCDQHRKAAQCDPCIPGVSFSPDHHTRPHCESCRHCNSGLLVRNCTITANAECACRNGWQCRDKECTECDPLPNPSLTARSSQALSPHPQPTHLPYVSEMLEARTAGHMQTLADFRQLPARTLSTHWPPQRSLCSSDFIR
Described as above.

The target in experiment [3] is T3, rhesus monkey OX40-his (rhesus monkey).
T3 construct: also called Rh-OX40; Rh-OX40-his
As to the kind of experiment: BLI (Fortebio), protein A sensor - antibody - OX40-his (100 nM).

Experiment [4] concerns the target T4, human OX40 on cells (human, UniProt P43489 29-277).
T4 construct: whole, on cells; the cell is named under assay; also called hOX40; Jurkat-hOX40 cells
T4 sequence (looked up): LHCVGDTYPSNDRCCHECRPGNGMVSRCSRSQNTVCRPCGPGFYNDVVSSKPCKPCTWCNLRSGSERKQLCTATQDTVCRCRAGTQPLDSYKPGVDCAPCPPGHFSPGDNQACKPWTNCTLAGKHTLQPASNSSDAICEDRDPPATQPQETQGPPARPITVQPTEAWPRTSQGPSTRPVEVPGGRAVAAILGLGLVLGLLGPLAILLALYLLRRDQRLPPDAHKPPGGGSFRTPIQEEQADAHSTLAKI
Description: flow cytometry on Jurkat-hOX40 cells, 3-fold dilutions from 50 nM, MFI. As to the method:
Antibody-F23-4k and antibody-F23-32k, as well as two control antibodies 11D4 and OX40mAb24 at different concentrations were used to incubate Jurkat-hOX40 cells.

Experiment [5] deals with T4, human OX40 on cells. As to the kind of experiment: cell-based or functional assay.
Experiment [6] deals with T5, human OX40 (coated on the plate, Example 8) (human, UniProt P43489 29-214).
T5 sequence (looked up): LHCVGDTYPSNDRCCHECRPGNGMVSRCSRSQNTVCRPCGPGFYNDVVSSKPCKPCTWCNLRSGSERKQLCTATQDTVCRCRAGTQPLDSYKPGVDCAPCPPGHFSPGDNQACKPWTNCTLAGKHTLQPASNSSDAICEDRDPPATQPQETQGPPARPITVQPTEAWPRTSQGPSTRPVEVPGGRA
Description: ELISA, OX40 coated at 2 µg/mL, antibody 2-fold dilutions; human OX40, not cynomolgus monkey OX40. As to the method:
(§1) The binding capacities of the antibody M-KF for human and cynomolgus monkey OX40 were determined by ELISA. The test method is as follows: human or cynomolgus monkey OX40 was coated on a plate and incubated overnight at 4° C. at a concentration of 2 μg/mL, and then incubated with antibody M-KF at different concentrations for detection. The antibody M-KF was 2-fold diluted in gradient from an initial concentration of 1 μg/mL or 2 μg/mL.

The target in experiment [7] is T4, human OX40 on cells. Description: flow cytometry (MFI) on Jurkat cells overexpressing OX40, antibody titration. The source says: (§2) Table 10 illustrates the CDRs of eight full antibodies containing these amino acid mutations, and the rest of the sequences are the same as those of antibody-F23-32K. […] The sequences of the anti-OX40 antibody (antibody M) are shown in Table 12; wherein, the expression cells used for the antibodies above (including antibody M) are CHO-S cells, and the method for preparing the antibody M-KF is as follows: the antibody M was identical to the antibody M-KF in terms of amino acid sequence and was expressed by the CHO cell line in which the fut8 gene was knocked out (the content of fucose in antibody M-KF was about 0%).

Experiment [8] has as its target T6, cynomolgus monkey OX40 (cynomolgus monkey).
T6 chain: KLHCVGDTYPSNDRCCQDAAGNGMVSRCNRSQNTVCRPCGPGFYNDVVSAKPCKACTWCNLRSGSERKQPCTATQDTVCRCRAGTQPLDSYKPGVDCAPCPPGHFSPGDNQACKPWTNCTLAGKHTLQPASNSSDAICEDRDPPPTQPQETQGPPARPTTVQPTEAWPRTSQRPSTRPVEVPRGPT
Description: ELISA, OX40 coated at 2 µg/mL, antibody 2-fold dilutions. As to the method:
as §1

Experiment [9] has as its target T4, human OX40 on cells. As to the kind of experiment: flow cytometry (MFI) on Jurkat cells overexpressing OX40, antibody titration; the unit nM comes from the legend paragraph 95.
Excerpt: as §2

Experiment [10] has as its target T4, human OX40 on cells. As to the kind of experiment: flow cytometry on Jurkat-hOX40 cells, 100 nM antibody, secondary antibody; parental Jurkat as control. As to the method:
Jurkat cells overexpressing human OX40 (Jurkat-hOX40 cells) were generated by transfecting pCMV vectors with human OX40 cDNA. Jurkat-hOX40 cells (0.5×10⁶ cells) were incubated with 100 nM experimental antibody in PBS containing 0.1% BSA on ice for 40 min. The cells were then washed twice and incubated with the secondary antibody in PBS containing 0.1% BSA on ice for 25 min. The cells were washed twice and analyzed by flow cytometry on Accuri C6 system (BD Biosciences).

B1: OX40mAb24 (antibody, V domains shown)
VH: QVQLQESGPGLVKPSQTLSLTCAVYGGSFSSGYWNWIRKHPGKGLEYIGYISYNGITYHNPSLKSRITINRDTSKNQYSLQLNSVTPEDTAVYYCARYKYDYDGGHAMDYWGQGTLVTVSS
VL: DIQMTQSPSSLSASVGDRVTITCRASQDISNYLNWYQQKPGKAPKLLIYYTSKLHSGVPSRFSGSGSGTDYTLTISSLQPEDFATYYCQQGSALPWTFGQGTKVEIKR
Regarding B1, the “ELISA (OD value)” value is 0.17 OD in [1] and 0.2 OD in [2]. Also, binding in experiment [3] was characterised by a dissociation constant (Kd) of 3 nM. This molecule displayed an EC50 in [4] of 5 nM.

B2: Antibody M-KF (antibody, human IgG1, kappa, V domains shown)
VH: QVQLVESGGGVVQPGESLRLSCAASGFTFSSYGMHWVRQAPGKGLEWVAVIWEDGSNQYYADSVKGRFTISRDNSKNTLYLQMNSLRAEDTAVYYCAKDNQDTSPDVGIDYWGQGTLVTVSS
VL: DIQMTQSPSSLSASVGDRVTITCRASQNISPFLNWYQQKPGKAPKLLIYAAVGLQSGVPSRFSGSGSGTDFTLTISSLQPEDFATYYCQQYTDYPLTFGGGTKVEIKR
modifications: fucose content about 0% (expressed in a CHO cell line with the fut8 gene knocked out)
With B2, in experiment [5], the “ADCC killing, fold against antibody M” value was greater than 2 fold; the “EC50 of ADCC killing, PBMC effector cells against Jurkat-hOX40 target cells (25:1)” value is roughly 1.89 ng/mL; the “NFκB reporter in Jurkat-hOX40-NFκB-2 cells with Raji cells, activation peak against 11D4” value was roughly 2.5 fold. In addition, the EC50 in experiment [6] is roughly 0.034 ng/mL. Further, the “EC50 (read off the curve)” value in experiment [7] was roughly 1 nM. This molecule had an EC50 in [8] of roughly 0.0352 ng/mL. The same molecule showed a concentration giving a half-maximal response (EC50) in experiment [9] of 1.34 nM.

B3: Antibody-F10 (antibody, human IgG1, kappa, V domains shown)
VH: QVQLQESGGGLEKPGRSLRLSCAASGFTFSSYAMHWVRQAPGKGLEWVAVISYDGSNKYYADSVKGRFTISRDNSKNTLYLQMNSLRAEDTAVYYCARELGVYSGYDTPFDYWGQGTLVTVSS
VL: DIQMTQSPSSLSASVGDRITITCRASRDIRDDLAWYQQKPGGAPKLLIYAASTLQSGVPSRFSGSGSGTDFTLTISSLQPEDFATYYCLQDSDYPLTFGGGTKLEIKR
notes: also called antibody No. 1
In the case of B3, the binding result in [10] is reported as “binds”.

For the origin of these results see patent US20230139700A1 (BIO THERA SOLUTIONS, published 2023).
